Experimental data taken from publication PMC6467980.

Assays:
[1] = tested on: P04501; experiment: SEC-MALS; Superdex 200 Increase 10/300 GL, 1X TBS, 1 mL/min; 100 µL at 2.5-2.8 mg/mL in PBS with 5% glycerol; native (oxidized) or reduced with DTT (1.6 mM, 50 °C 10 min, then a further 1.6 mM)
[2] = target: recombinant human desmoglein 2 (human) (UniProt Q14126)
[3] = target: recombinant human desmoglein 2 (human) (UniProt Q14126); experiment: SPR; rhDSG2 amine-coupled to a CM5 chip (6000 RU), junction openers flowed; Biacore 3000, 25 °C; 10 mM HEPES, 150 mM NaCl, 0.005% surfactant P20, 2 mM CaCl2 pH 7.4; 15 µl/min; 1:1 Langmuir fit; apparent (avidity)
[4] = target: JO-4 (Adenovirus serotype 3 (Ad3)) (UniProt P04501); experiment: SEC-MALS; Superdex 200 Increase 10/300 GL, 1X TBS, 1 mL/min; 100 µL at 2.5-2.8 mg/mL in PBS with 5% glycerol; native (oxidized) or reduced with DTT (1.6 mM, 50 °C 10 min, then a further 1.6 mM)
[5] = target: recombinant human desmoglein 2 (human) (UniProt Q14126); remark: listed apart in the source
[6] = target: JO-4 (Adenovirus serotype 3 (Ad3)) (UniProt P04501); experiment: SPR; JO-4 or GB7_(V239D) amine-coupled to a CM5 chip (approximately 6000 RU), rhDSG2 flowed (17.4 nM to 0.87 nM, triplicate); Biacore 3000, 25 °C; 10 mM HEPES, 150 mM NaCl, 0.005% surfactant P20, 2 mM CaCl2 pH 7.4; 15 µl/min; 1:1 Langmuir fit; apparent (avidity)
[7] = target: GB7_(V239D) (Adenovirus serotype 3 (Ad3)) (UniProt P04501); experiment: as above

Substance JO-4 has a % total as Aggregate (Agg.), oxidized [1] of 90% and a % total as Aggregate (Agg.), reduced [1] of 94%.
In the case of “JO-4 (from UniProt P04501 127-319) (designed binder)”, the VIA IC50: inhibition of entry of Ad3-GFP reporter virus into HeLa cells (blocks Ad3 virus on DSG2) [2] is reported as 0.067 mg/L, the Kd [3] is reported as 11.4 nM and the koff [3] is reported as 0.00264 s⁻¹. The kon [3] was 232000 M⁻¹ s⁻¹, the % total as Monomer (M), oxidized [4] was 4% and the % total as Monomer (M), reduced [4] was 3%. The % total as Multimer (Multi.), oxidized [4] was 4%, the % total as Multimer (Multi.), reduced [4] was < 0.5% and the % total as Trimer (T), oxidized [4] was 2%. For the same substance, the % total as Trimer (T), reduced [4] was 2%, the % total as Trimer-Dimer (T-D), oxidized [4] was < 0.5% and the % total as Trimer-Dimer (T-D), reduced [4] was 1%. For the same substance, the stoichiometry N [4] was 3 and the DSG2 shedding (fold over PBS treated at 48 h), ELISA of shed DSG2 [5] was 1.44 fold.
Substance “recombinant human desmoglein 2 (from UniProt Q14126 50-609) (natural protein)” has a Kd [6] of 0.58 nM, a koff [6] of 0.00046 s⁻¹ and a kon [6] of 790000 M⁻¹ s⁻¹. For the same substance, the Kd [7] was 1.19 nM, the koff [7] was 0.00075 s⁻¹ and the kon [7] was 630000 M⁻¹ s⁻¹.
